The record followed here is patent US20240200089A1 (AGRIVIDA, published 2024).

The target of assay [1] is T1, chicken interleukin 10 (chicken (Gallus gallus), UniProt Q6A2H4 22-174).
T1 sequence: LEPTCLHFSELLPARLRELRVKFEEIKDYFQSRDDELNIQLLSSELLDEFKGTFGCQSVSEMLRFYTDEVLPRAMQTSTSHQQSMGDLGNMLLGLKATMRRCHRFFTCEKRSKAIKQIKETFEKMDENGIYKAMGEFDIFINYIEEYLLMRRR
Nature of the assay: cell-based or functional assay.

The target in assay [2] is T1, chicken interleukin 10. The assay is described as follows: ELISA, sdAB titrated on cIL-10 coated plates. In general terms: ELISA stands for enzyme-linked immunosorbent assay.

B1: chIL10sdAB1F11 (VHH, not shown: small tags and cut ends)
VHH: QVQLQEFGGGLVQPGGSLRLSCAASGRTGSSYAMGWFRQAPGKEREFVAAISWSGGSTDYADSVKGRFTISRDNAKNTMYLQMNSLKPEDTAVYYCAVDRNLFKLRVAVQEYTNLGQGTQVTVSS
notes: Llama single domain antibody; also called 86-IL-bR2-1F11
On to B1, for which the “apparent EC50, recovery of IFN-γ secretion in primary chicken spleen cells treated with ConA and cIL-10” value (“apparent EC50, recovery” for short) in assay [1] came out at 60 nM. Also, the half-maximal effective concentration (EC50) in assay [2] was ~15 nM.

B2: chIL10sdAB1D6 (VHH)
VHH: QVQLQASGGGLVQAGGSLRLSCQASESISSINTMGWFRQASGEEREFVAAIESGGATAYAESAKGRFTISRDNAKNTVYLQMNSLKPEDTAVYYCAAGVPTYDDDAMPISWRFWGRGTLVTVSS
notes: Llama single domain antibody; The construct used in the ELISA is not described; also called 44-IL-bR2-1D6
As for B2, the EC50 in assay [2] was ~100 nM.

B3: chIL10sdAB1B9 (VHH)
VHH: QVQLQESGGGLVQAGGSLRLSCAASGRTFSSYAWGWFRQAPGKEREFVARISFSGGHTYYSDSVKGRFTISRDNAKNTVYLQMNSLKPEDTAVYYCAADPTPYGLRNERNYPYWGQGTQVTVSS
notes: Llama single domain antibody; The construct used in the ELISA and the cell assay is not described
B3: the “apparent EC50, recovery” value in assay [1] is 40 nM. Also, in assay [2], the EC50 was ~35 nM.

B4: chIL10sdAB1H1 (VHH)
VHH: QVQLQASGGGLVQAGGSLRLSCAASGRTFNSYAWGWFRQAPGKERGFVARISFSGGHTYYSDSVKGRFTISRDNAKNSVYLQMNSLKPEDTAVYYCAADPTPYGLRNERNYHYWGQGTQVTVSS
notes: Llama single domain antibody; The construct used in the ELISA is not described
In assay [2], B4 gave an EC50 of 20 nM.

B5: chIL10sdAB1A11 (VHH, not shown: small tags and cut ends)
VHH: QVQLQESGGGLVQPGGSLRLSCAASGNIFSINTMGWYRQAPGKQRELVASITTGGTTNYEDSVKGRFTISRDNAKKTVYLQMNRLKPEDTAVYYCNHRRSYSGRDYPVYGMDYWGKGTLVTVSS
notes: Llama single domain antibody; also called 1A11 sdAB; 81-IL-bR2-1A11
With B5, the “apparent EC50, recovery” value in assay [1] turned out to be 25 nM. In assay [2], the EC50 was ~1 nM.

What is called EC50 is the concentration giving half of the maximal effect. Read a low EC50 as greater potency.
